From patent publication US20180271864

Target: T1, Flag-tagged human PZR (UniProt O95297)
T1 sequence: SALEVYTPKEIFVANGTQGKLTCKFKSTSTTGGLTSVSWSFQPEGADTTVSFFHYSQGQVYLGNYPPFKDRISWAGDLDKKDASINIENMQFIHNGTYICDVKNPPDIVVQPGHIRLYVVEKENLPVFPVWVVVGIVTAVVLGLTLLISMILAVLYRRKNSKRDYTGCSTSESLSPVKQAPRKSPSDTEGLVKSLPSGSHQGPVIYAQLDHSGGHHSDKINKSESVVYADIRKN

Substance: Src recombinant protein
- in vitro Src kinase assay, immunoblot with anti-pPZR (Y241 or Y263) antibodies: These results implicated c-Src as directly phosphorylating PZR at Shp2 binding sites
